From patent publication US20250277199, “NOVEL CRISPR-CAS NUCLEASES FROM METAGENOMES” (Brain Biotech AG, published 2025) come the findings set out here.

The data set addresses T1, BMC09 (uncultured bacterium (metagenome)).
T1 chain: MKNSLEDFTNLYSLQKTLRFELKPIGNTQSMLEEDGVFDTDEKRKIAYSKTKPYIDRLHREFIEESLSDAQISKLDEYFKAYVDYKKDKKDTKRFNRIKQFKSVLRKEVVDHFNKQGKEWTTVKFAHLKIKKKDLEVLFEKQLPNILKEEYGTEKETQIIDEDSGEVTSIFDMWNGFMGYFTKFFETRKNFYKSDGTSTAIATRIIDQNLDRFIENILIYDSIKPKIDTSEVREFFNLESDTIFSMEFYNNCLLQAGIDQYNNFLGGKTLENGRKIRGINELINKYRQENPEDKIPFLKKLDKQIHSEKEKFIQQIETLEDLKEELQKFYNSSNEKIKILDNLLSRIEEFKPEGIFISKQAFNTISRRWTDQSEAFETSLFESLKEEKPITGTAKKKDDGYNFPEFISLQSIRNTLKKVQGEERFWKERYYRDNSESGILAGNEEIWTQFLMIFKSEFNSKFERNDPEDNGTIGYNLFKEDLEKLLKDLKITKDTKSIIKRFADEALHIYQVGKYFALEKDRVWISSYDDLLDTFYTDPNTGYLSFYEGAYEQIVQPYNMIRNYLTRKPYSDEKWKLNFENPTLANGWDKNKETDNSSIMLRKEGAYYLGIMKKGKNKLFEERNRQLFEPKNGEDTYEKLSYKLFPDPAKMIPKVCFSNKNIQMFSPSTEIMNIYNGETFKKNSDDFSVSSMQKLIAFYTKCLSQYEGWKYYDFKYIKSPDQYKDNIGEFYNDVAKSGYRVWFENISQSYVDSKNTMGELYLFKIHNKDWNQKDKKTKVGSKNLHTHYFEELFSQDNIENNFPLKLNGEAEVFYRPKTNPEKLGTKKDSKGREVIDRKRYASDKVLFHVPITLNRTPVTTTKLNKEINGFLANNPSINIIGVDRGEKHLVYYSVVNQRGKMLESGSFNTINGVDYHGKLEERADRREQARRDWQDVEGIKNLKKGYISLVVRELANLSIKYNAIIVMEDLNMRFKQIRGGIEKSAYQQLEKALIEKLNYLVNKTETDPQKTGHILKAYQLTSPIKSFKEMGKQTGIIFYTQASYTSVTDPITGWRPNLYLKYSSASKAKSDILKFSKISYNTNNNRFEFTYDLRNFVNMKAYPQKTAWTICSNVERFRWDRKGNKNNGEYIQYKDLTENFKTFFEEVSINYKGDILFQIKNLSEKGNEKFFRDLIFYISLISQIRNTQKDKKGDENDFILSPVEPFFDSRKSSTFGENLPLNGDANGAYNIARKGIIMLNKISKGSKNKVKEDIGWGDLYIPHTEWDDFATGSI
As to the kind of experiment: cell_activity; PAM not stated; E. coli depletion, 30 C. The method in brief: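 E. coli carrying arabinose-induced (0.2%) BMC nuclease, grown at 30° C., made electrocompetent and electroporated with 50-100 ng plasmid carrying gRNA against malQ. Transformants plated on selective M9-glucose agar with kanamycin/ampicillin (± nourseothricin), and growth scored after 48 h at 30° C.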

B1: malQ gRNA (BMC stem-loop + 24 nt spacer) ; malQ protospacer (ssRNA ; dsDNA)
RNA: GAUUUCUACUAUUGUAGAUGUGGCGGUACGUUGAUGCAUCGCG
DNA 1: GTGGCGGTACGTTGATGCATCGCG
DNA 2: CGCGATGCATCAACGTACCGCCAC
The molecule B1 gave an activity above 99.9 % colony reduction.
